Publication PMC3189933, “Acylpeptide Hydrolase Inhibition as Targeted Strategy to Induce Proteasomal Down-Regulation” (PLoS ONE, 2011)

Tests used:
[1] = target: Acylpeptide hydrolase from Sulfolobus solfataricus (Sulfolobus solfataricus)
[2] = target: Acylpeptide hydrolase from Sulfolobus solfataricus (Sulfolobus solfataricus); experiment: enzyme inhibition kinetics (Lineweaver-Burk); APEHSs pre-incubated with the peptide 30 min at 80°C, 25 mM Tris-HCl pH 7.5, substrate acetyl-Leu-pNA; competitive inhibition

Acylpeptide hydrolase from Sulfolobus solfataricus (Sulfolobus solfataricus), sequence (Q7LX61 entry or part of it): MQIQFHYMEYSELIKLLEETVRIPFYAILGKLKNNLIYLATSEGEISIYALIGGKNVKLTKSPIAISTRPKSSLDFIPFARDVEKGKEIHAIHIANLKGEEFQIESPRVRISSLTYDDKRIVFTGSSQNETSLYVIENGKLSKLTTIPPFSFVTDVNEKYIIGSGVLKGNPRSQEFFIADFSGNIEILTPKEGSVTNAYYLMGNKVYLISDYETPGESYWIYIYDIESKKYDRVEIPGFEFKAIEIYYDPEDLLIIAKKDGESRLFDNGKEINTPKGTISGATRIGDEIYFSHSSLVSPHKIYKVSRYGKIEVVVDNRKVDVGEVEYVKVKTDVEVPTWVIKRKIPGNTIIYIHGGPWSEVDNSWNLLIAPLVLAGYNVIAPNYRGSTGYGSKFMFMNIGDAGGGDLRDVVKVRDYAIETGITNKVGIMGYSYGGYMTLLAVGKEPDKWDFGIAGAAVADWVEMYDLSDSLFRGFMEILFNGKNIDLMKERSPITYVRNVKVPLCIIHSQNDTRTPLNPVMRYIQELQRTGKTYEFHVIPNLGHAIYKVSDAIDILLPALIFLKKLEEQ

H-TILLEIKNINAD-NH2 [SsCEI 2]
IC50 of inhibition of APEHSs activity (substrate Ac-Leu-pNA) [1]: 9.8 µM | Ki [2]: 1000 nM
